Source: patent US20240108738A1 (Bicycle, published 2024)
Numbered stars: 1 amine (or outer) side, 2 acyl side, 3 side chain; on linkers, the order of the positions; unused ones are H or OH. Bridge positions count the residues as written; N and C are the ends. Square brackets hold non-standard residues; d marks the D form. Ends that are not written are not given here. * marks the point of attachment. TATA = O=C(CC[*:1])N1CN(C(=O)CC[*:2])CN(C(=O)CC[*:3])C1; Ala(4-thiazolyl) = N[C@@H](Cc1cscn1)C(=O)O; 1Nal = N[C@@H](Cc1cccc2ccccc12)C(=O)O; 2Pal = N[C@@H](Cc1ccccn1)C(=O)O; Cba = N[C@@H](CC1CCC1)C(=O)O; Pent4ynoyl = C#CCCC(=O)*

B1: BCY18280 (peptide)
peptide: ACDLTT[2Pal]NCQWGICA-NH2
modifications: linker 2-9-14 via TATA; N-terminus assumed
SMILES: CC[C@H](C)[C@@H]1NC(=O)CNC(=O)[C@H](Cc2c[nH]c3ccccc23)NC(=O)[C@H](CCC(N)=O)NC(=O)[C@@H]2CSCCC(=O)N3CN(CN(C3)C(=O)CCSC[C@@H](C(=O)N[C@@H](C)C(N)=O)NC1=O)C(=O)CCSC[C@H](NC(=O)[C@H](C)N)C(=O)N[C@@H](CC(=O)O)C(=O)N[C@@H](CC(C)C)C(=O)N[C@@H]([C@@H](C)O)C(=O)N[C@@H]([C@@H](C)O)C(=O)N[C@@H](Cc1ccccn1)C(=O)N[C@@H](CC(N)=O)C(=O)N2
notes: scaffold TATA
B2: BCY16837 (peptide)
peptide: ACYLPK(Pent4ynoyl)YLCGDEYCA-NH2
modifications: linker 2-9-14 via TATA; N-terminus assumed
SMILES: C#CCCC(=O)NCCCC[C@@H]1NC(=O)[C@@H]2CCCN2C(=O)[C@H](CC(C)C)NC(=O)[C@H](Cc2ccc(O)cc2)NC(=O)[C@@H](NC(=O)[C@H](C)N)CSCCC(=O)N2CN3CN(C2)C(=O)CCSC[C@@H](C(=O)N[C@@H](C)C(N)=O)NC(=O)[C@H](Cc2ccc(O)cc2)NC(=O)[C@H](CCC(=O)O)NC(=O)[C@H](CC(=O)O)NC(=O)CNC(=O)[C@H](CSCCC3=O)NC(=O)[C@H](CC(C)C)NC(=O)[C@H](Cc2ccc(O)cc2)NC1=O
notes: scaffold TATA
B3: BCY18292 (peptide)
peptide: ACDLTTHNCQW[dA]ICA-NH2
modifications: linker 2-9-14 via TATA; N-terminus assumed
SMILES: CC[C@H](C)[C@@H]1NC(=O)[C@@H](C)NC(=O)[C@H](Cc2c[nH]c3ccccc23)NC(=O)[C@H](CCC(N)=O)NC(=O)[C@@H]2CSCCC(=O)N3CN(CN(C3)C(=O)CCSC[C@@H](C(=O)N[C@@H](C)C(N)=O)NC1=O)C(=O)CCSC[C@H](NC(=O)[C@H](C)N)C(=O)N[C@@H](CC(=O)O)C(=O)N[C@@H](CC(C)C)C(=O)N[C@@H]([C@@H](C)O)C(=O)N[C@@H]([C@@H](C)O)C(=O)N[C@@H](Cc1c[nH]cn1)C(=O)N[C@@H](CC(N)=O)C(=O)N2
notes: scaffold TATA
B4: BCY18287 (peptide)
peptide: ACDLTTHNCQ[1Nal]GICA-NH2
modifications: linker 2-9-14 via TATA; N-terminus assumed
SMILES: CC[C@H](C)[C@@H]1NC(=O)CNC(=O)[C@H](Cc2cccc3ccccc23)NC(=O)[C@H](CCC(N)=O)NC(=O)[C@@H]2CSCCC(=O)N3CN(CN(C3)C(=O)CCSC[C@@H](C(=O)N[C@@H](C)C(N)=O)NC1=O)C(=O)CCSC[C@H](NC(=O)[C@H](C)N)C(=O)N[C@@H](CC(=O)O)C(=O)N[C@@H](CC(C)C)C(=O)N[C@@H]([C@@H](C)O)C(=O)N[C@@H]([C@@H](C)O)C(=O)N[C@@H](Cc1c[nH]cn1)C(=O)N[C@@H](CC(N)=O)C(=O)N2
notes: scaffold TATA
B5: BCY17662 (peptide)
peptide: ACYLPDYLC[dK](Pent4ynoyl)DEYCA-NH2
modifications: linker 2-9-14 via TATA; N-terminus assumed
SMILES: C#CCCC(=O)NCCCC[C@H]1NC(=O)[C@@H]2CSCCC(=O)N3CN(CN(C3)C(=O)CCSC[C@@H](C(=O)N[C@@H](C)C(N)=O)NC(=O)[C@H](Cc3ccc(O)cc3)NC(=O)[C@H](CCC(=O)O)NC(=O)[C@H](CC(=O)O)NC1=O)C(=O)CCSC[C@H](NC(=O)[C@H](C)N)C(=O)N[C@@H](Cc1ccc(O)cc1)C(=O)N[C@@H](CC(C)C)C(=O)N1CCC[C@H]1C(=O)N[C@@H](CC(=O)O)C(=O)N[C@@H](Cc1ccc(O)cc1)C(=O)N[C@@H](CC(C)C)C(=O)N2
notes: scaffold TATA
B6: BCY18282 (peptide)
peptide: ACDLTT[Ala(4-thiazolyl)]NCQWGICA-NH2
modifications: linker 2-9-14 via TATA; N-terminus assumed
SMILES: CC[C@H](C)[C@@H]1NC(=O)CNC(=O)[C@H](Cc2c[nH]c3ccccc23)NC(=O)[C@H](CCC(N)=O)NC(=O)[C@@H]2CSCCC(=O)N3CN(CN(C3)C(=O)CCSC[C@@H](C(=O)N[C@@H](C)C(N)=O)NC1=O)C(=O)CCSC[C@H](NC(=O)[C@H](C)N)C(=O)N[C@@H](CC(=O)O)C(=O)N[C@@H](CC(C)C)C(=O)N[C@@H]([C@@H](C)O)C(=O)N[C@@H]([C@@H](C)O)C(=O)N[C@@H](Cc1cscn1)C(=O)N[C@@H](CC(N)=O)C(=O)N2
notes: scaffold TATA
B7: BCY16840 (peptide)
peptide: ACYLPDYLCK(Pent4ynoyl)DEYCA-NH2
modifications: linker 2-9-14 via TATA; N-terminus assumed
SMILES: C#CCCC(=O)NCCCC[C@@H]1NC(=O)[C@@H]2CSCCC(=O)N3CN(CN(C3)C(=O)CCSC[C@@H](C(=O)N[C@@H](C)C(N)=O)NC(=O)[C@H](Cc3ccc(O)cc3)NC(=O)[C@H](CCC(=O)O)NC(=O)[C@H](CC(=O)O)NC1=O)C(=O)CCSC[C@H](NC(=O)[C@H](C)N)C(=O)N[C@@H](Cc1ccc(O)cc1)C(=O)N[C@@H](CC(C)C)C(=O)N1CCC[C@H]1C(=O)N[C@@H](CC(=O)O)C(=O)N[C@@H](Cc1ccc(O)cc1)C(=O)N[C@@H](CC(C)C)C(=O)N2
notes: scaffold TATA
B8: BCY16842 (peptide)
peptide: ACYLPDYLCGDK(Pent4ynoyl)YCA-NH2
modifications: linker 2-9-14 via TATA; N-terminus assumed
SMILES: C#CCCC(=O)NCCCC[C@@H]1NC(=O)[C@H](CC(=O)O)NC(=O)CNC(=O)[C@@H]2CSCCC(=O)N3CN(CN(C3)C(=O)CCSC[C@@H](C(=O)N[C@@H](C)C(N)=O)NC(=O)[C@H](Cc3ccc(O)cc3)NC1=O)C(=O)CCSC[C@H](NC(=O)[C@H](C)N)C(=O)N[C@@H](Cc1ccc(O)cc1)C(=O)N[C@@H](CC(C)C)C(=O)N1CCC[C@H]1C(=O)N[C@@H](CC(=O)O)C(=O)N[C@@H](Cc1ccc(O)cc1)C(=O)N[C@@H](CC(C)C)C(=O)N2
notes: scaffold TATA
B9: BCY16843 (peptide)
peptide: ACYLPDYLCGDEK(Pent4ynoyl)CA-NH2
modifications: linker 2-9-14 via TATA; N-terminus assumed
SMILES: C#CCCC(=O)NCCCC[C@@H]1NC(=O)[C@H](CCC(=O)O)NC(=O)[C@H](CC(=O)O)NC(=O)CNC(=O)[C@@H]2CSCCC(=O)N3CN(CN(C3)C(=O)CCSC[C@@H](C(=O)N[C@@H](C)C(N)=O)NC1=O)C(=O)CCSC[C@H](NC(=O)[C@H](C)N)C(=O)N[C@@H](Cc1ccc(O)cc1)C(=O)N[C@@H](CC(C)C)C(=O)N1CCC[C@H]1C(=O)N[C@@H](CC(=O)O)C(=O)N[C@@H](Cc1ccc(O)cc1)C(=O)N[C@@H](CC(C)C)C(=O)N2
notes: scaffold TATA

Each binder was assayed against T1, Human NKp46 Fc tag (Acro Biosystems, NC1-H5257) (human, UniProt O76036 22-255) (assay: SPR Method 1 and/or 2).
T1 construct: bought; also called Fc-tagged human NKp46
T1 sequence (O76036 22-255 limits assumed): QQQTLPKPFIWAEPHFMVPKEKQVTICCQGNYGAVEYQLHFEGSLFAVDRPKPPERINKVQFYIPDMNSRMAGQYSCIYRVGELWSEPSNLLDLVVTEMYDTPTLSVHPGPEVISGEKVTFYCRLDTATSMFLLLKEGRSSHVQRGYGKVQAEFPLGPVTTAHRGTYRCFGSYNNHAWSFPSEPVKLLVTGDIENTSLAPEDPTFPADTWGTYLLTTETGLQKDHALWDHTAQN
Experimental: The SPR analysis was run at 25° C. and a flow rate of 50 μl/min with 60 seconds association and 200-400 seconds dissociation time. Data were corrected for DMSO excluded volume effects. All data were double-referenced for blank injections and reference surface using standard processing procedures and data processing and kinetic fitting were performed using Scrubber software, version 2.0c (BioLogic Software). Data were fitted using simple 1:1 binding model allowing for mass transport effects where appropriate.
For analysis of peptide binding, a Biacore 8k+ instrument was used with a CM5 chip (Cytiva). All experiments were carried out at 25° C. Anti-human IgG (Fc) antibody (Cytiva) was immobilized on all flow cells by standard amine coupling chemistry. The running buffer was HBS-N(Cytiva, 10 mM HEPES, 0.15 M NaCl, pH 7.4) and the flow rate was 10 μL/min. The carboxymethyl dextran surface was activated with a 1:1 ratio of 0.4 M 1-ethyl-3-(3-dimethylaminopropyl) carbodiimide hydrochloride (EDC)/0.1 M N-hydroxy succinimide (NHS) (Cytiva) for 420s. […] Residual activated groups were blocked with a 420 s injection of 1 M ethanolamine (pH 8.5). The final surface density was 3000-5000 RU. Fc-tagged human NKp46 was diluted to 0.1 μM in HBS-N and was captured on flow cell 2 only of the sensor chip at a flow rate of 10 μL/min to 500-1000 RU. The buffer was then changed to PBS-P+(Cytiva) supplemented with 2% DMSO. […] The flow rate was 50 μL/min with 60 s association and 400 s dissociation. Data were corrected for DMSO volume exclusion effects. All data were double-referenced against blank injections and reference surface response using standard processing procedures. Data processing and kinetic fitting was performed using Biacore Insight Evaluation Software with Extended Screening and Characterization Extension (Cytiva). Data were fitted using steady state affinity 1:1 binding model to determine KD. Data were fitted using kinetic 1:1 binding model to determine kinetic constants where appropriate.

Kd [nM]	Binder
1270	B1
42	B2
1240	Ac-CDLTTHNCQWGIC-NH2 (linker 1-8-13 via TATA, scaffold TATA) [BCY18260]
543	Ac-ACDLTTHNCQWGICA-NH2 (linker 2-9-14 via TATA, scaffold TATA) [BCY18261]
396	ACDLTTHNCQWGICA-NH2 (linker 2-9-14 via TATA; also: scaffold TATA, TATB or TBMT, scaffold TATA) [BCY15107]
335	ACDLTLHNCQWGICA-NH2 (linker 2-9-14 via TATA; also: scaffold TATA, TATB or TBMT, scaffold TATA) [BCY18278]
326	ACNLTTHNCQWGICA-NH2 (linker 2-9-14 via TATA; also: scaffold TATA, TATB or TBMT, scaffold TATA) [BCY18273]
1460	B3
599	ACDLTT[His3Me]NCQWGICA-NH2 (linker 2-9-14 via TATA; not fully specified, scaffold TATA) [BCY18279]
1230	ACDLTTHNC[Cba]WGICA-NH2 (linker 2-9-14 via TATA, scaffold TATA) [BCY18286]
637	B4
8.1	B5
414	ACNLQNPCMKFPCAK(Pent4ynoyl)-NH2 (linker 2-8-13 via TATA (inferred), scaffold TATA) [BCY18004]
661	B6
60	B7
2470	B8
424	ACDLTT[His1Me]NCQWGICA-NH2 (linker 2-9-14 via TATA; not fully specified, scaffold TATA) [BCY18281]
729	ACLLHDHCPNTHPKLCAK(Pent4ynoyl)-NH2 (linker 2-8-16 via TATA (inferred), scaffold TATA) [BCY18005]
3010	B9
